Data as given in article PMC10954734, “Structure of antiviral drug bulevirtide bound to hepatitis B and D virus receptor protein NTCP” (Nature Communications, 2024).

Molecular target: T1, complex of detergent-solubilized, biotinylated NTCP and BLV (Homo sapiens NTCP; bulevirtide from …)
T1 construct: also called NTCP-BLV complex; source: BLV: provided peptide; not shown: Avi-tag, C-terminal, kept; eYFP, C-terminal, cleaved; rho-1D4, C-terminal, cleaved
Test: ELISA; multipoint ELISA at 4 C; 40 nM biotinylated NTCP immobilised on a neutravidin-coated plate in the presence of BLV, serial dilutions of purified Fab for 20 min, detection with HRP-conjugated protein L; EC50 from a sigmoidal dose-response fit; apparent
Settings: both partners purified

B1: Fab3 (Fab, V domains shown)
VH: EVQLVESGGGLVQPGGSLRLSCAASGFNVSSSYIHWVRQAPGKGLEWVASISPYYSYTSYADSVKGRFTISADTSKNTAYLQMNSLRAEDTAVYYCARYQYDYYYSYYAGLDYWGQGTLVTVSS
VL: DIQMTQSPSSLSASVGDRVTITCRASQSVSSAVAWYQQKPGKAPKLLIYSASSLYSGVPSRFSGSRSGTDFTLTISSLQPEDFATYYCQQYRYSLITFGQGTKVEIK
notes: also called Fab specific to the NTCP-BLV complex
  Kd: 8 nM
